Measurements from patent WO2020239014A1 (dated 2020).
Several values for one entry are separate records, joined by “and”; a condition that tells them apart may be missing. Equal values may be shown once.

T1: CGRPα (4013281-1000, Bachem) (human, UniProt P06881 83-119, not fully specified)
T1 construct: mature; ELISA: coated Bachem CGRPα; also called α-CGRP; human CGRP
T1 peptide (looked up): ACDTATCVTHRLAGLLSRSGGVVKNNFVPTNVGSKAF


Key:
[1] = target: T1, CGRPα (4013281-1000, Bachem); test: ELISA, coated CGRPα titrated (0-0.2 μg/mL), antibody fixed at 1 μg/mL
[2] = target: T1, CGRPα (4013281-1000, Bachem); test: BLI (Octet RED 96), α-CGRP on streptavidin biosensors, antibody in solution, 1:1 model
[3] = target: T1, CGRPα (4013281-1000, Bachem); test: cell-based or functional assay

EC50 [1]	Kd [2] [pM]	koff [2] [s⁻¹]	kon [2] [M⁻¹ s⁻¹]	EC50, cell-based cAMP activation assay (HTRF) with CGRP [3] [µg/mL]	Binder
0.0135 µg/mL and 0.036 µg/mL	< 1	< 1e-07	122000		CGRPM5-BA51.23-IgG2 (antibody, V domains shown, Humanized BA51, IgG2; also called CGRP-BA51.23; CGRP-BA51.23-IgG2) VH: QVQLVQSGAEVKKPGASVKVSCKASGYTFTRYTMHWIRQAPGQGLEWMGYIYPSSGYTIYNQKFQGRVTMTRDTSTSTVYMELSSLRSEDTAVYYCATEGHYAGNGNYEGYWGQGTTVTVSS VL: DIVMTQSPSSLSASVGDRVTITCRASSSISSNYLHWYQQKPGKAPKLLIYRTSNLASGVPSRFSGSGSGTDFTLTISSLQPEDFATYYCQQGSSIPFTFGQGTKLEIK
0.00844 µg/mL				32	CGRPM5-BA51.23-IgG2-N105D (antibody, V domains shown, IgG2; also called optimized BA51.23 antibody (N105D)) VH: QVQLVQSGAEVKKPGASVKVSCKASGYTFTRYTMHWIRQAPGQGLEWMGYIYPSSGYTIYNQKFQGRVTMTRDTSTSTVYMELSSLRSEDTAVYYCATEGHYAGDGNYEGYWGQGTTVTVSS VL: DIVMTQSPSSLSASVGDRVTITCRASSSISSNYLHWYQQKPGKAPKLLIYRTSNLASGVPSRFSGSGSGTDFTLTISSLQPEDFATYYCQQGSSIPFTFGQGTKLEIK
0.0106 µg/mL				44.9	CGRPM5-BA51.23-IgG2-N105L (antibody, V domains shown, IgG2; also called optimized BA51.23 antibody (N105L)) VH: QVQLVQSGAEVKKPGASVKVSCKASGYTFTRYTMHWIRQAPGQGLEWMGYIYPSSGYTIYNQKFQGRVTMTRDTSTSTVYMELSSLRSEDTAVYYCATEGHYAGLGNYEGYWGQGTTVTVSS VL: DIVMTQSPSSLSASVGDRVTITCRASSSISSNYLHWYQQKPGKAPKLLIYRTSNLASGVPSRFSGSGSGTDFTLTISSLQPEDFATYYCQQGSSIPFTFGQGTKLEIK
